These results are taken from PMC5027511.

The experiment concerns the target E. coli RNAP core with βG1249D (α2, His6-tagged βG1249D, β’, ω) (E. coli) (UniProt P0A7Z4). The experiment in a line: cross-linking; photo-crosslinking from BpA at σ 581; σD581BpA incubated with or without AsiA 10 min at 37°C, then with core 10 min at 37°C; UV 30 min at room temperature; SDS-PAGE with Coomassie stain; crosslinked band digested with trypsin and read by MALDI-TOF; the species was seen only with AsiA present.

“AsiA/σD581BpA complex (from UniProt P00579 1-613; P32267 1-90)” had a fold less of the σD581BpA-β’ crosslinked product than with wt core of 4 fold.
